Measurements reported in publication PMC2928781.
Values belong to the substance of their own block, whether it stands above or below them.

Legend:
Assay in all cases: two-hybrid; L40 strain co-transformed with pGAD424 (prey) and pBTM116 (target) constructs; LACZ reporter read by ONPG assay (Miller units); each mutant against the wild-type MSH4 or MSH5 partner; three independent co-transformants
Msh5 (S. cerevisiae) = Msh5 (S. cerevisiae) (UniProt Q12175)
[1] = target: Msh5 D680A (S. cerevisiae) (UniProt Q12175)
[2] = target: Msh5 G648A (S. cerevisiae) (UniProt Q12175)
[3] = target: Msh5 D539A (S. cerevisiae) (UniProt Q12175)
[4] = target: Msh5 N182A (S. cerevisiae) (UniProt Q12175)
[5] = target: Msh5 W298A (S. cerevisiae) (UniProt Q12175)
[6] = target: Msh5 Y661A (S. cerevisiae) (UniProt Q12175)
[7] = target: Msh5 D433A (S. cerevisiae) (UniProt Q12175)
[8] = target: Msh5 D250A (S. cerevisiae) (UniProt Q12175)
[9] = target: Msh5 R436A (S. cerevisiae) (UniProt Q12175)
[10] = target: Msh5 R685W (S. cerevisiae) (UniProt Q12175)
[11] = target: Msh5 S416A (S. cerevisiae) (UniProt Q12175)
[12] = target: Msh5 D532A (S. cerevisiae) (UniProt Q12175)
[13] = target: Msh5 E45A (S. cerevisiae) (UniProt Q12175)
[14] = target: Msh5 D527A (S. cerevisiae) (UniProt Q12175)
[15] = target: Msh5 D76A (S. cerevisiae) (UniProt Q12175)
[16] = target: Msh5 V488A (S. cerevisiae) (UniProt Q12175)
[17] = target: Msh5 Y480A (S. cerevisiae) (UniProt Q12175)

Msh4, sequence (P40965 whole entry): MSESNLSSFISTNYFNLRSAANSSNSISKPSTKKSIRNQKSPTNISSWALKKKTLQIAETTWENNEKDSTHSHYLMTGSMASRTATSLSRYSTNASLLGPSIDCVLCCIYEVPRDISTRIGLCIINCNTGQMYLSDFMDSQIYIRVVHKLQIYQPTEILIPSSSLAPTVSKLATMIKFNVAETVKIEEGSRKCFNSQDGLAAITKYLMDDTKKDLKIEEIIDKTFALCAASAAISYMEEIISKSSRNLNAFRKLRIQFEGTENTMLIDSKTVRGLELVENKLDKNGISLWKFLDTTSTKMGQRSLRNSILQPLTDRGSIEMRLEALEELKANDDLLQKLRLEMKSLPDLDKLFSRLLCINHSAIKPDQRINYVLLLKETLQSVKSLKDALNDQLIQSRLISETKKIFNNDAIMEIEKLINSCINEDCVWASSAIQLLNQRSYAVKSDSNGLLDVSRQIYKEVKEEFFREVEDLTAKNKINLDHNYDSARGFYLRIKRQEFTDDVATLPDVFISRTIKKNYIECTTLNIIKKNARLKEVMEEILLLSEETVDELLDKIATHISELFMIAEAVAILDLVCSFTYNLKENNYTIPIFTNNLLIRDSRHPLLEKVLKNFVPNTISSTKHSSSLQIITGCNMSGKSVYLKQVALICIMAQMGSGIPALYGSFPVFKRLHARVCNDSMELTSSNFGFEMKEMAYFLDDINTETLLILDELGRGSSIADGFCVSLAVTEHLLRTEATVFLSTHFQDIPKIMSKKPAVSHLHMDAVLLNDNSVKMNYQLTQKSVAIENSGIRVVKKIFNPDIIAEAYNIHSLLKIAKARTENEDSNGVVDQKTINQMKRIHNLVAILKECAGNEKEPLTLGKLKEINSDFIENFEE

- β-galactosidase activity (two-hybrid) (Msh5 (S. cerevisiae)): 96 Miller units
Substance: Msh4 R676W (from UniProt P40965 1-878) (natural protein)

- β-galactosidase activity (two-hybrid) (Msh5 (S. cerevisiae)): 1.5 Miller units
Substance: Msh4 D139A (from UniProt P40965 1-878) (natural protein)

- β-galactosidase activity (two-hybrid) [1]: 1.4 Miller units
- β-galactosidase activity (two-hybrid) [2]: 45 Miller units
- β-galactosidase activity (two-hybrid) [3]: 89 Miller units
- β-galactosidase activity (two-hybrid) [4]: 63 Miller units
- β-galactosidase activity (two-hybrid) [5]: 1.4 Miller units
- β-galactosidase activity (two-hybrid) [6]: 1.2 Miller units
- β-galactosidase activity (two-hybrid) [7]: 1.4 Miller units
- β-galactosidase activity (two-hybrid) [8]: 6.2 Miller units
- β-galactosidase activity (two-hybrid) [9]: 1.3 Miller units
- β-galactosidase activity (two-hybrid) [10]: 46 Miller units
- β-galactosidase activity (two-hybrid) [11]: 3 Miller units
- β-galactosidase activity (two-hybrid) [12]: 3.7 Miller units
- β-galactosidase activity (two-hybrid) (Msh5 (S. cerevisiae)): 54 Miller units
- β-galactosidase activity (two-hybrid) [13]: 62 Miller units
- β-galactosidase activity (two-hybrid) [14]: 1.9 Miller units
- β-galactosidase activity (two-hybrid) [15]: 1.3 Miller units
- β-galactosidase activity (two-hybrid) [16]: 1.4 Miller units
- β-galactosidase activity (two-hybrid) [17]: 2.2 Miller units
Substance: Msh4 (from UniProt P40965 1-878) (natural protein)

- β-galactosidase activity (two-hybrid) (Msh5 (S. cerevisiae)): 2.5 Miller units
Substance: Msh4 F491A (from UniProt P40965 1-878) (natural protein)

- β-galactosidase activity (two-hybrid) (Msh5 (S. cerevisiae)): 70 Miller units
Substance: Msh4 E276A (from UniProt P40965 1-878) (natural protein)

- β-galactosidase activity (two-hybrid) (Msh5 (S. cerevisiae)): 11.6 Miller units
Substance: Msh4 G639A (from UniProt P40965 1-878) (natural protein)

- β-galactosidase activity (two-hybrid) (Msh5 (S. cerevisiae)): 1.9 Miller units
Substance: Msh4 R456A (from UniProt P40965 1-878) (natural protein)

- β-galactosidase activity (two-hybrid) (Msh5 (S. cerevisiae)): 1.6 Miller units
Substance: Msh4 L493A (from UniProt P40965 1-878) (natural protein)
